{
  "source": "paper PMC6200708",
  "about": "“Tannerella forsythia Tfo belongs to Porphyromonas gingivalis HmuY-like family of proteins but differs in heme-binding properties” (Bioscience Reports, 2018)",
  "key": {"[1]": {"target": "Porphyromonas gingivalis A7436 HmuY protein (Porphyromonas gingivalis A7436)", "assay": "SEC; holo protein (with heme), under oxidizing conditions"}, "[2]": {"target": "Porphyromonas gingivalis A7436 HmuY protein (Porphyromonas gingivalis A7436)", "assay": "SDS/PAGE; purified protein run on SDS/PAGE; samples solubilized at 37°C for 1 h or at 100°C for 5 min"}, "HmuY": {"target": "HmuY (Porphyromonas gingivalis, UniProt A2BCY8)", "assay": "UV-visible difference-spectrum heme titration of purified protein, one-site model; CD and MCD", "assay_type": "binding"}, "[3]": {"target": "Tannerella forsythia ATCC 43037 Tfo protein (Tannerella forsythia ATCC 43037)", "assay": "SEC; holo protein (with heme), under reducing conditions"}},
  "data": [
    {"molecule": "Porphyromonas gingivalis A7436 HmuY protein (natural protein)", "values": [
      {"measurement": "stoichiometry N", "setting": "[1]", "value": 2},
      {"measurement": "stoichiometry N", "setting": "[2]", "value": 2}
    ]},
    {"molecule": "C=CC1=C(C)C2=Cc3c(C=C)c(C)c4[n]3[Fe][n]3c(c(C)c(CCC(=O)O)c3=CC3=NC(=C4)C(C)=C3CCC(=O)O)=CC1=N2", "note": "[heme]", "values": [
      {"measurement": "Kd", "setting": "HmuY", "value": "< 1", "unit": "nM"}
    ]},
    {"molecule": "Tannerella forsythia ATCC 43037 Tfo protein (natural protein)", "values": [
      {"measurement": "stoichiometry N", "setting": "[3]", "value": 2}
    ]}
  ]
}
